The data set in a line: label from the status in PepcDB records.
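Also: failed if final PepcDB status was selected cloned or expressed and not failed if soluble or beyond.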

Turning to “MEQFSFIACMPDIPGALHRAAEIITRYEGNINRIQYDRRIDLHTVFFEVTALPQAYEKIREELEKIGYLQTSLQPVAFVKFHVYLPNCPGALFDLLNYITSSKSSITFLDFDDRGQHPERLVVGLHIEDPNMIDALLNQLKSRYRLDILEYDTTGEKLDDTVFYLRLAQKLRSFIGSAEDDFLMRFLQDINHITQELSNLQKDPIEVFENILKVGDYLNRTSGDNFYADVQRVRIKDDIELFCFQPPCGGNIYLFDTSSERVMIDTGYGIYFQDIVNMLQYYGLGDLSRLKRIYITHADADHCGAAGCFPAPSYLNRETFLITRETSRAYGSSNQDCILEEVYTKIINLFSRFTPPSNTVLFPEVSLSDKIIEKRGVFPIIARFRIGDLKFEVLEGMGGHMHGEVFYFCPEEGLLFPEDAVINFKSLSPDRTAYNVLADYLMTSVNVDSKLAREERQSLLSLISEIDEQLARKNKKCLICCGHGSMSLLDNGKLIEYKGSERYVAGQKCISQENL”, the protein production result is on record as “failed”.

As for “MEQGMSKRILVPVAHGSEEMETVIIVDTLVRAGFQVTMAAVGDKLQVQGSRGVWLTAEQTLEACSAEAFDALALPGGVGGAQAFADSTALLALIDAFSQQGKLVAAICATPALVFAKQQKFVGARMTCHPNFFDHIPSERLSRQRVCYYATQHLLTSQGPGTALEFALAMIALLAGVELAQHVAAPMVLHPQQLTELSGFIDAQS”, the protein production entry is listed as “not failed”.

Take “MEQLAKLSMTDRLTGLLNRGTWENLVDAEYERFRRYGQATSLVMFDIDHFKPVNDTYGHLAGDEVIRHTADVTRNNIRQSDSAGRYGGEEFGIILPETDAESARVICERIREAIEKSTVSTSAGDIQYTVSMGIAQLTETPENYMQWMQKADEALYKAKESGRNKVVVSLEHHHHHH”: the protein production entry was “not failed”.

Turning to “MEQMIFIRKDDKVEVFSEEEELKGSYYRAILEDNPTKSGHNKLKVRYLTQLNEHRLAPLTEFVDQRFIRPVPSEDVNDGVVFVEGLMVDAYLKDGWWTGVVVKTMEDEKFLVYFDCPPDIIQFEKKKLRVHLDWTGFKWIRPDNKELVKSVFSCGTMVELRFDCAWIPVIVIKELEKDKRFLVKYWNKSYSCRESKNLIVDSLRLRPMQPPLSVGKYELLDHVEAFSGFEWRQGVVRGIVFEGRYMVSFGATKEASQFNHSDIRPPMEWEDGVWHKRTKPKRQKETSLDGNRNVQTKEPPGNEMADDVKKESGLPITLGVTATKNKTQGKVSPVPMKNGFGNESTREKMPEEPKIKYYTRKRKRGGLKLNSYINKTVLSSDRTPNVVKNSASNAEENHAKHTIMVLPFAKKSPVWKTYESLEVFKSVSHSLHFSPLFETKQDFREGYAIGMMVTYFGLLEKFKDLEADVPVSQLNSLKDSFSELEKHGFNVTTPLSRIDKLLALKDRQLYIMEELKGFDKEMTNEFSKAKQEFDDMEQKILEVKHKIIELQRQEAALKEQKEAEKEQKDAAWKKICQMESCAKDLNVELEDVEFEFETILSAPW”, the protein production entry is “failed”.

For “MEQNSGTSSASGRALFPLYAITFIGTLGFGIILTFLVFLVTDYGGNALVYGILASTYPAFQLIGAPVLGRWSDLYGRKKILLLSQIGTMLAWIIFFAALFFPVIPLIEVRSDLLGTFTITLPLLILFLARALDGATGGNVSVANAYLADLTSEEERNKNYGRMSVASNLGYVFGPAIAGVLGTTAYGEILPVSAALVISIIGTLIVLFLLPDSRPCAIEEYPESTGIRKILGQEQKECYQVEAGSKITFREVFKLEYIPFMLVVYFLIFLGFNIYYTAFPIFAVVALEWSPAELGIYFSVISALMAFVQGPVLAKLARRYRESIMVVGGGFILGLQFILIVSGDYLLLYLAAVFFAFGNGIMWPSILSILSKFAGKKYQGSVQGFAMSASSLASIIGLLAGGFLYTQFGVIAFLIAAAIIYLVVFLSFRLLRIEKEKLIETEAAKTPV”, the protein production entry is “failed”.

With “MEQPQEEAPEVREEEEKEEVAEAEGAPELNGGPQHALPSSSYTDLSRSSSPPSLLDQLQMGCDGASCGSLNMECRVCGDKASGFHYGVHACEGCKGFFRRTIRMKLEYEKCERSCKIQKKNRNKCQYCRFQKCLALGMSHNAIRFGRMPEAEKRKLVAGLTANEGSQYNPQVADLKAFSKHIYNAYLKNFNMTKKKARSILTGKASHTAPFVIHDIETLWQAEKGLVWKQLVNGLPPYKEISVHVFYRCQCTTVETVRELTEFAKSIPSFSSLFLNDQVTLLKYGVHEAIFAMLASIVNKDGLLVANGSGFVTREFLRSLRKPFSDIIEPKFEFAVKFNALELDDSDLALFIAAIILCGGE”, the protein production entry is “not failed”.

As for “MEQRRLASTEWVDIVNEENEVIAQASREQMRAQCLRHRATYIVVHDGMGKILVQRRTETKDFLPGMLDATAGGVVQADEQLLESARREAEEELGIAGVPFAEHGQFYFEDKNCRVWGALFSCVSHGPFALQEDEVSEVCWLTPEEITARCDEFTPDSLKALALWMKRNAKNEAVETETAE”, the protein production result was “not failed”.

Consider “MEQRVLGGRYLLKDKVGTGGMATVYRAQDQVLDRTVAVKIMLPQYAGDATFAARFKQEAQAAAGLSSPYIVGVYDWGKDGDTYYIVMEYLRGTDLKSGIKSHGALDPKKVAQIGSQISSALSVAHKHEIIHRDIKPQNIMVLPDGNIKVMDFGIARAKNSHLTQDNNVLGTAHYVSPEQTRGQDLGPTSDIYSLGVVMYECATGRVPFDGDDAISVALKQVNELPIPPSQINSGVDADLERIILKCMEKDPTNRFQTADELRQVLNSYLSGRAVNVSEPTRIIGAPGELGATKTRELSDQTRAMVRPVSGVSGQNTARSSVSGSTGSYEVEEPKSNKNKIIAAVVAAVAVIGIVVAFATGLFGGEQVTVPDVLGKDQQTAVELIKEAGLEVGTIDQSYNDDVDEGKVAEQTPNGNTKKTKGTKVNLVISKGPKPSEKVEVPKLVGLTKDQAEAALASVGLKGNASEEANEADEGQVFEQGTEAGKEVAKGTTISYKVSSGPDTTSVPDLTDMTEAQARNALDMAGFGVDVSYQENDSVTEGTVISWNPSGKQKPGATITVVIAKKSGKATVPGNLYGKSISAAVTALNNAGFYNIGFCDQNGNPVSGNEDATVTGVSPTGKQSTDSTITLTVALSGSGSGSGTSTGDDSGTTN”, for which the protein production result is listed as “failed”.

Consider “MEQTEHIPPPGLVAQLRERSLLQTGDRFETLYGGRTNRVWRLHGPADDLVVKLYRRDFDNPLFGNDAQLEALCLDRLEGTGLAPQLRASGALGQEAWVVYDHAPGAPWRTDPAIAARMLANLHRRALDIPAPAGCNGSAAIRTHAEAILSRCDQPDRELLLKARPHTATIAPGPACLIHGDPVAGNLLVSGDQAILIDWQCPAIGDPAEDLAMFLSPAMQQVYRGAPLTAAEEQQFLSAYDNAGTVARYLSLKPWFHWRMAAYCRWRARNGAPDYAPAFELEHAALAAC”, for which the protein production result was “failed”.

Consider “MEQVIAQVIKRQQTEERPPDVLSQQTTKYEKRNSASLRKRKNSSKLYLKTDQNWMALREKLASNSIHDKGKYRQKRESNVTCFKSGVESGIQNSSVRSRETQVTFCDGTVPSQGLELANSKSTAEISSRNEIPRLTKVVALDCEFVGVGKLGKEHSLARVSIVNFKGEVLYDKYVLNDKEPVVDYRTSVSGIRPEHLRSSDAVSFEQAQRDVYSIIRNRILVGHAIHHDMHALLLSHPRKLIRDTSKWRGLRSHHLSRKTPSLRKLAQEILGIRIQDGEHDSVEDARATLMIYKRFAKEWEMELQTKKVKLARKKHR”, for which the protein production entry was “failed”.

With “MEQVSKSHENKAEEQTEGVGLLERLFKLSQHKTTVKTELMAGLTTFVTMSYIMFLNPIIMSKTGMPFDGLFLATCLGAAIATILMGMYANWPVGLAPGMGLNAFFTFSVVGSMGYSWQIALGAVFLSGVIFVLMSVTRLREWMLDSIPMSLRLAMTAGVGLFLGFIGLRFTGIVVANPDNVVALADMTHFGFGQFGPEAPALGFLSFLLIAILSYRKVFGAVLIGIAVTTFIAFAMTWVLPTDFFVVAEAAKSFAPASGFVAYKGLLAIPEFSALEPILWKADIVGAFEVALIPVIVTFLFVNIFDTAGTLMGVAERANLQDENGKIEGLSKSLKADSISSVIGTAFGCPPVTSYVESAAGVAAGGRTGLTAVTIGLLFAAGVFFLPLAQMLPGFAVDGALIYVAMLMMSSLRGLDWDDLTEYAPAVCTTVMMAFTFSIANGIAFGFITYTVLKVGAGKSSQVSNGVWALTVLFVAKFIFLN”, the protein production result is on record as “failed”.

Regarding “MERAFMLNGLLVNLVSGLIVMFISAILYYRKPERKWLLIIIVIGMMSVVTAGIRMLVA”, the protein production result was “failed”.

The values above are taken from a protein production outcome set (Wang et al. 2014).
